Reference: publication PMC7124958

How the values were obtained:
Assay in all cases: MST
[1] = target: C0-C7 fragment of human cardiac myosin binding protein-C (MyBP-C) (human)
[2] = target: WT human β-cardiac short S1 (sS1) (human) (UniProt P12883)
[3] = target: R663H human β-cardiac short S1 (sS1) (human) (UniProt P12883)
[4] = target: WT human β-cardiac 25-hep HMM (UniProt P12883)
[5] = target: R663H human β-cardiac 25-hep HMM (UniProt P12883)

A Kd [1] of 1100 nM was found for “WT human β-cardiac 25-hep HMM (from UniProt P12883 1-1016; P08590 1-195) (complex)” in this work.
A Kd [2] of 62000 nM and a Kd [3] of 58000 nM were found for “proximal S2 of human β-cardiac myosin (from UniProt P12883 1-1935) (domain or fragment)” in this work.
A Kd [4] of 1500 nM and a Kd [5] of 1100 nM were found for “C0-C7 fragment of human cardiac myosin binding protein-C (MyBP-C) (domain or fragment)” in this work.
